Source: PMC6821326 (Nucleic Acids Research, 2019)

Molecular target: T1, wild-type YoeB toxin, YoeB(His)6 (Escherichia coli, UniProt P69348)
T1 sequence: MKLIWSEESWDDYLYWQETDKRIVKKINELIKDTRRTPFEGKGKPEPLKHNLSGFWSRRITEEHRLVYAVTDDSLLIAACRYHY
Experiment: pull-down

B1: YefM antitoxin (natural protein)
chain: MRTISYSEARQNLSATMMKAVEDHAPILITRQNGEACVLMSLEEYNSLEETAYLLRSPANARRLMDSIDSLKSGKGTEKDIIE
- binding result: binds
